Assay results taken from patent publication US20200071424A1 (SHIONOGI, published 2020).
Where two headings read alike, the source gives them in different places.

T1: human [1-305]-mouse chimeric EL (human; mouse, UniProt Q9WVG5 306-500)
T1 construct: Heparin extract, captured or detected by an anti-C2-tag antibody; also called human-mouse chimeric EL
T1 sequence: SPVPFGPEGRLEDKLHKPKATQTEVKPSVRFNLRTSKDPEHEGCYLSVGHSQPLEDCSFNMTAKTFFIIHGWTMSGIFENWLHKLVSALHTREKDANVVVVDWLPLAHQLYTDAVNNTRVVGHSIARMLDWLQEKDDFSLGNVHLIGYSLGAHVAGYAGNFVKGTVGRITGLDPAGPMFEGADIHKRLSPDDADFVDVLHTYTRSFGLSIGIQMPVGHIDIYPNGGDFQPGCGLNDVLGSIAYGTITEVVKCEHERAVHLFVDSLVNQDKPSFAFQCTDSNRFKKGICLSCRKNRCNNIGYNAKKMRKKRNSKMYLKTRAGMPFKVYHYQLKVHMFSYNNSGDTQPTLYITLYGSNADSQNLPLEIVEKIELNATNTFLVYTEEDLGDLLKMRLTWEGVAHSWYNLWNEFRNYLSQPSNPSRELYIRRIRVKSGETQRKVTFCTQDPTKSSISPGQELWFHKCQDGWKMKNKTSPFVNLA

T2: mouse EL (mouse, UniProt Q9WVG5 21-500)
T2 construct: Heparin extract
T2 sequence (looked up): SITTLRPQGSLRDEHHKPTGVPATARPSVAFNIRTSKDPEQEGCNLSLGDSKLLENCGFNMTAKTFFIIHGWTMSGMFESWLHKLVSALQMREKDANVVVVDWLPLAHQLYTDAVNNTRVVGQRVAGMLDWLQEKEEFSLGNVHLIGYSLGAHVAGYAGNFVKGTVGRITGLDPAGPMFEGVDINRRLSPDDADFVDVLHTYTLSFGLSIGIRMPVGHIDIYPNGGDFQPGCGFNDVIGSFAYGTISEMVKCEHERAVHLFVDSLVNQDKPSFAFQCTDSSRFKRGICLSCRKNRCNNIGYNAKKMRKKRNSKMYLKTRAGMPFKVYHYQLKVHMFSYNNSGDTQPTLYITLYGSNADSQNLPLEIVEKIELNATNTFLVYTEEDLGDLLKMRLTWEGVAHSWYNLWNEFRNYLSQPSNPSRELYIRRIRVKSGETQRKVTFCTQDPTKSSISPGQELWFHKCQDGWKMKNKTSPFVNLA

T3: human [1-157]-mouse chimeric EL (human; mouse, UniProt Q9WVG5 158-500)
T3 construct: Heparin extract, detected by an anti-C2-tag antibody
T3 sequence: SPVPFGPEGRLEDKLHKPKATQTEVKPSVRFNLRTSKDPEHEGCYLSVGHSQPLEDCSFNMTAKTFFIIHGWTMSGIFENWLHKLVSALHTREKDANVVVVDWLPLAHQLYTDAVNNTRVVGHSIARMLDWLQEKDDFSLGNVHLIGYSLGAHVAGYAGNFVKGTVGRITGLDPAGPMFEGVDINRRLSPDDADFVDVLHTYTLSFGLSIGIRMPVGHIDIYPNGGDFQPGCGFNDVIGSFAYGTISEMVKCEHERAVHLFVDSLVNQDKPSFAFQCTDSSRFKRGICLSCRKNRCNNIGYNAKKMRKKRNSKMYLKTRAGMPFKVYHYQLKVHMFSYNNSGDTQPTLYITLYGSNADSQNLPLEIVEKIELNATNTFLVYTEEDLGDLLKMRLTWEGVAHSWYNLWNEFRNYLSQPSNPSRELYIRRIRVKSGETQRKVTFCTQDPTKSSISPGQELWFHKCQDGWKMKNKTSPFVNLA


Assays:
cynomolgus monkey EL [1] = target: cynomolgus monkey EL (cynomolgus monkey); assay: cell-based or functional assay
baboon EL [2] = target: T4, baboon EL (baboon); assay: Biacore; EL captured by anti-C2-tag Ab; bivalent fit
T4 construct: Heparin extract
Method: (§1) The binding affinities of anti-EL antibodies were measured using Biacore. […] Then, anti-EL antibodies were added and the binding affinities were calculated by bivalent fitting of BIAevaluation software.

[3] = target: T1, human [1-305]-mouse chimeric EL; assay: as above
Method: as §1

cynomolgus monkey EL [4] = target: T5, cynomolgus monkey EL (cynomolgus monkey); assay: as above
T5 construct: Heparin extract; also called cynomolgus EL; Cynomolgus EL
Method: as §1

baboon EL [5] = target: T4, baboon EL; assay: ELISA: antibody captured on anti-mouse IgG-Fc plate, EL heparin extract added, detection with biotin anti-C2-tag antibody and HRP-streptavidin, A450
Method: (§2) Assay buffer containing 15 μl of anti-EL antibody was added to anti-mouse IgG-Fc antibody-immobilized microtiter plate, and incubated for 2 hr. […] After washing the wells three times with 90 μL of washing buffer, 15 μl of assay buffer containing biotin-labeled anti-C2-tag antibody and HRP-labeled Streptavidin were added to the wells and incubated at room temperature for 1 hr. After washing the wells three times with 90 μL of washing buffer, 15 μL of TMB+—Substrate—Chromogen (DAKO) was added and incubated at room temperature for 30 min and then 15 μL of 0.05 M H2SO₄ was added and absorbance at 450 nm was measured (FIG. 3A to 3K).

cynomolgus monkey EL [6] = target: T5, cynomolgus monkey EL; assay: as above
Method: as §2

mouse EL [7] = target: T2, mouse EL; assay: as above
Method: as §2

[8] = target: T3, human [1-157]-mouse chimeric EL; assay: as above
Method: as §2

rabbit EL = rabbit EL (rabbit); assay: cell-based or functional assay
baboon EL [9] = target: T4, baboon EL; assay: cell-based or functional assay
[10] = target: human-mouse chimeric EL (construct not specified); assay: cell-based or functional assay
cynomolgus monkey EL [11] = target: T5, cynomolgus monkey EL; assay: cell-based or functional assay; remark: listed apart in the source
[12] = target: T1, human [1-305]-mouse chimeric EL; assay: cell-based or functional assay
baboon EL [13] = target: T4, baboon EL; assay: cell-based or functional assay; remark: listed apart in the source
mouse EL [14] = target: T2, mouse EL; assay: cell-based or functional assay

Neutralizing activity IC50 (cynomolgus monkey EL [1]) [nM]	Kd (baboon EL [2]) [nM]	koff (baboon EL [2]) [s⁻¹]	kon (baboon EL [2]) [M⁻¹ s⁻¹]	Kd [3] [nM]	koff [3] [s⁻¹]	kon [3] [M⁻¹ s⁻¹]	Kd (cynomolgus monkey EL [4]) [nM]	koff (cynomolgus monkey EL [4]) [s⁻¹]	kon (cynomolgus monkey EL [4]) [M⁻¹ s⁻¹]	EC50 (read off the curve) (baboon EL [5]) [ng/mL]	EC50 (read off the curve) (cynomolgus monkey EL [6]) [ng/mL]	binding result (mouse EL [7])	EC50 (read off the curve) [8] [ng/mL]	Neutralizing activity IC50 (baboon EL [9]) [nM]	Neutralizing activity IC50 [10] [nM]	Neutralizing activity IC50 (cynomolgus monkey EL [11]) [nM]	Neutralizing activity IC50 [12] [nM]	Neutralizing activity IC50 (baboon EL [13]) [nM]	Neutralizing activity IC50 (mouse EL [14]) [nM]	Binder	also measured
3.1	5.1	0.00031	61000	0.91	0.00014	150000	8.7	0.00041	47000	~20	~10	no binding (tested: about 330 ng/mL)	~4	2.6	4.1	1.7	4.1			13B3 (antibody, mouse IgG2a, V domains shown, mouse IgG2a from hybridoma; also called 13B3 (mouse mAb)) VH: EVQLQQSGPELLKPGASVKISCKASGYTFTEYTMHWVKQSHGKSLEWIGSINPYYGGTSYNEKFKDKATLTVDKSSNTAYMEFRSLTSEDCAVYYCARYGNYVGYFDYWGQGTTLTVSS VL: ENVLTQSPAIMSASLGEKVTMSCRASSSVHYMYWYQQKSDASPKLWIYYTSNLAPGVPDRFSGSGSGNSYSLTISSMEGEDAATYYCQQFTSSPYTFGGGTKLEIK	Neutralizing activity IC50 (rabbit EL): 13 nM
2.7	1.6	0.00026	170000	0.63	0.00011	180000	4.2	0.00038	91000	~20	~10	no binding (tested: about 330 ng/mL)	~6	2.4	2.3	1.9	2.6			53A11 (antibody, mouse IgG2a, V domains shown, mouse IgG2a from hybridoma; also called 53A11 (mouse mAb)) VH: EVQLQQSGPELLKPGASVKISCKASGYTFTDYTMHWVKQSHGKSLEWIGGINPYYGGTTYNEKFKDKATLTVDKSSSTAYMELRSLTSEDSAVYYCAKGDYYGGSYNYWGQGTTLTVSS VL: DIVLTQSLATLSVTPGDSVSLSCRASQDISNSLHWYQQKSHESPRLLIKYASQSISGIPSRFSGSGSGTDFTLSINSVETEDFGMYFCQQSNSWPYTFGGGTKLEIK	
																		3.3	3	h16F6-S2 (antibody, V domains shown) VH: QVQLVQSGAEVKKPGASVKVSCKASGYTFTTYWIAWVRQAPGQGLEWMGEILPGSAKTKYNKKFKGRVTMTRDTSTSTVYMELSSLRSEDTAVYYCAVYDYGADYWGQGTTVTVSS VL: DIQMTQSPSSLSASVGDRVTITCKASQDVYTAVAWYQQKPGKSPKLLIYSASYRFTGVPSRFSGSGAGTDFTLTISSLQPEDFATYYCQQHYSIPRTFGGGTKVEIK	
																		2.6	2	h16F6-S4 (antibody, V domains shown) VH: QVQLVQSGAEVKKPGASVKVSCKASGYTFTTYWIAWVRQAPGQGLEWMGEILPGSAKTKYNKKFKGRVTMTRDTSTSTVYMELSSLRSEDTAVYYCAVYDYGADYWGQGTTVTVSS VL: DIQMTQSPSSLSASVGDRVTITCKASQDVYTAVAWYQQKPGKSPKLLIYSASYRFTGVPSRFTGSGAGTDFTFTISSLQPEDFATYYCQQHYSIPRTFGGGTKVEIK	
																		3.1	3.3	h16F6-S3 (antibody, V domains shown) VH: QVQLVQSGAEVKKPGASVKVSCKASGYTFTTYWIAWVRQAPGQGLEWMGEILPGSAKTKYNKKFKGRVTMTRDTSTSTVYMELSSLRSEDTAVYYCAVYDYGADYWGQGTTVTVSS VL: DIQMTQSPSSLSASVGDRVTITCKASQDVYTAVAWYQQKPGKSPKLLIYSASYRFTGVPSRFTGSGAGTDFTLTISSLQPEDFATYYCQQHYSIPRTFGGGTKVEIK	
																		2	2.1	h16F6-S5 (antibody, V domains shown) VH: QVQLVQSGAEVKKPGASVKVSCKASGYTFTTYWIAWVRQAPGQGLEWMGEILPGSAKTKYNKKFKGRVTMTRDTSTSTVYMELSSLRSEDTAVYYCAVYDYGADYWGQGTTVTVSS VL: DIQMTQSPSSLSASVGDRVSITCKASQDVYTAVAWYQQKPGKSPKLLIYSASYRFTGVPSRFTGSGAGTDFTFTISSLQPEDFATYYCQQHYSIPRTFGGGTKVEIK	
1.4	2.9	0.00044	150000	0.87	0.00011	120000	6.1	0.00075	120000	~20	~8	no binding (tested: about 330 ng/mL)	~4	3.2	1.7	2.7	1.7			23H8 (antibody, mouse IgG2a, V domains shown, mouse IgG2a from hybridoma; also called 23H8 (mouse mAb)) VH: EVQLQQSGPELLKPGASVKISCKASGYTFTDNTIHWVKQSHGKSLEWIGHINPYYGGTNNNEKFKDKATLTVDKSSSTAYMELRSLTSEDSAIYYCARKGIYYSSPFDYWGQGTTLTVSS VL: DIQMTQTTSSLSASLGDRVTISCRASQDINNYLNWYQQKPDGTVKLLISYTSKLHSGVPSRFSGSGSGTDYSLTISNLEREDFATYFCQQGNTLPFTFGSGTNLEIK	Neutralizing activity IC50 (rabbit EL): 67 nM
